Values belong to the molecule of their own block, whether it stands above or below them.
How the values were obtained:
[1] = biological target: MglB (Myxococcus xanthus) (UniProt Q1DB03); assay: ITC
[2] = biological target: MglC (Myxococcus xanthus); assay: SEC
[3] = biological target: MglB (Myxococcus xanthus) (UniProt Q1DB03); assay: SEC
[4] = biological target: MglC (Myxococcus xanthus); assay: SAXS
[5] = biological target: MglB (Myxococcus xanthus) (UniProt Q1DB03); assay: SAXS
[6] = biological target: T1, MglB (Myxococcus xanthus), Q1DB03; assay: SAXS; details: remark: other sources report otherwise
T1 chain: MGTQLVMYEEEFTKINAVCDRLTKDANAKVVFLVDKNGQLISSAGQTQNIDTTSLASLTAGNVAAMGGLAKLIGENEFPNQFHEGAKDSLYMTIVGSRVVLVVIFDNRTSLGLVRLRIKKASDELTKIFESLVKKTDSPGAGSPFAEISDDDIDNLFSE

[7] = biological target: T1, MglB (Myxococcus xanthus), Q1DB03; assay: SEC; details: remark: other sources report otherwise

- Kd [1]: 625 nM
- dH [1]: 6.94 kcal/mol
- stoichiometry N [1]: 0.5
- stoichiometry N [2]: 2
- stoichiometry N (MglC:MglB (2:4)) [3]: 0.5
- stoichiometry N [4]: 2
- stoichiometry N (MglC:MglB (2:4)) [5]: 0.5
Molecule: MglC (natural protein)

- stoichiometry N [6]: 2
- stoichiometry N [7]: 2
B1: MglB, Q1DB03 1-159 (natural protein)
chain: T1 chain

— article doi:10.1101/2020.08.27.270058
